Measurements as given in article PMC11414720.

Target: TMED2 (overexpressed) (UniProt Q15363)
Experiment: SEC; gel filtration of overexpressed protein in octyl-β-glucoside, a harsher detergent

Chain of TMED2 (overexpressed), Q15363 21-201 (receptor; other documents disagree on this pair) (Q15363 21-201): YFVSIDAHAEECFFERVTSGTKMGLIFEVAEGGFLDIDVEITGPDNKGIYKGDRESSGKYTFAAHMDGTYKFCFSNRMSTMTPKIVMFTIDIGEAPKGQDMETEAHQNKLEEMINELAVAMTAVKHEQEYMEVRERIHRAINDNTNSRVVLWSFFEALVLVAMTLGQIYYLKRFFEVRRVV

TMED2 (overexpressed), Q15363 21-201 (receptor; other documents disagree on this pair)
stoichiometry N: 2
